The target of assay [1] is HIV-1 protease, bait PR_v1 (HIV-1 isolate YU2) (UniProt P35963). Kind of assay: cell-based or functional assay.
The target of assay [2] is HIV-1 Integrase (IN), bait IN (HIV-1 isolate YU2) (UniProt P35963). The experiment in a line: cell-based or functional assay.
Sequence of HIV-1 Integrase (IN), bait IN (HIV-1 isolate YU2) (P35963 1148-1435 limits assumed): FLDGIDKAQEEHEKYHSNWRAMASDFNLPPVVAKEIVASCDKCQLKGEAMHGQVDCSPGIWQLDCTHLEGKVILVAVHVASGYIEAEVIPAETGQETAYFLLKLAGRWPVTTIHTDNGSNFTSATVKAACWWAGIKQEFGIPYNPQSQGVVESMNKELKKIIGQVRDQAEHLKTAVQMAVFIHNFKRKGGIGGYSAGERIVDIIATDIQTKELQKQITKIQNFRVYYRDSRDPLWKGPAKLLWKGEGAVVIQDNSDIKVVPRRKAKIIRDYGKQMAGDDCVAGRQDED

Sequence of HIV-1 protease, bait PR_v1 (HIV-1 isolate YU2) (P35963 489-587 limits assumed): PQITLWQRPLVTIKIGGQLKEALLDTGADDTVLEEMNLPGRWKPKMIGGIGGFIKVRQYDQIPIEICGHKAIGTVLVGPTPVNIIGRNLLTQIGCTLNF

For the substance “Human AIM1 (prey030612), Absent in Melanoma, prey fragments, Q9Y4K1 1-2131”, in assay [1], the inhibition of HIV-1 infection (p24 antigen in supernatant) after siRNA against AIM1, HeLa cells with CD4 and CCR5 turned out to be 30%. “LEDGF p75 isoform (PSIP2), prey fragments (from UniProt O75475 340-417)” yielded an inhibition of HIV replication (p24 antigen in supernatant) after siRNA against LEDGF, HeLa cells with CD4 and CCR5 in assay [2] of 84%.

For the origin of these results see US20060034860A1.
